Starred links: 1 amine or outer side, 2 acyl side, 3 side chain; linkers in the order of their positions; H or OH if unused. Positions of bridges follow the written chain, without caps; N, C: chain ends. Non-standard residues stand in square brackets, D forms with d. Primed or numbered codes have the meaning given here. B5(15) = 2-amino-2-(pent-4-en-1-yl)hept-6-enoic acid (2,2-bis(4-pentenyl)glycine), stitching residue bearing two staples, C=CCCCC(CCCC=C)(N[*:1])C(=O)[*:2]; PyrS2″ = (S)-3-amino-1-((pent-4-en-1-yloxy)carbonyl)pyrrolidine-3-carboxylic acid (stapling residue), C=CCCCOC(=O)N1CC[C@@](N[*:1])(C(=O)[*:2])C1; B5(23) = 2-amino-2-(pent-4-en-1-yl)hept-6-enoic acid (2,2-bis(4-pentenyl)glycine), stitching residue, C=CCCCC(CCCC=C)(N[*:1])C(=O)[*:2]; B5(3) = 2,2-bis(4-pentenyl)glycine (stitching residue), C=CCCCC(CCCC=C)(N[*:1])C(=O)[*:2]; Phe(3-COOH) = N[C@@H](Cc1cccc(C(=O)O)c1)C(=O)O; Phe(2-Cl) = N[C@@H](Cc1ccccc1Cl)C(=O)O; Bta = N[C@@H](Cc1csc2ccccc12)C(=O)O; αAllylPro = C=CC[C@@]1(C(=O)O)CCCN1; tBuAla = CC(C)(C)C[C@H](N)C(=O)O; 3Thi = N[C@@H](Cc1ccsc1)C(=O)O; S8 = C=CCCCCCC[C@](C)(N)C(=O)O; hSer = N[C@@H](CCO)C(=O)O
What was measured:
B-cat-Halo = target: T1, B-cat-Halo (Homo sapiens (Human), UniProt P35222 1-781); experiment: cell-based or functional assay
T1 sequence: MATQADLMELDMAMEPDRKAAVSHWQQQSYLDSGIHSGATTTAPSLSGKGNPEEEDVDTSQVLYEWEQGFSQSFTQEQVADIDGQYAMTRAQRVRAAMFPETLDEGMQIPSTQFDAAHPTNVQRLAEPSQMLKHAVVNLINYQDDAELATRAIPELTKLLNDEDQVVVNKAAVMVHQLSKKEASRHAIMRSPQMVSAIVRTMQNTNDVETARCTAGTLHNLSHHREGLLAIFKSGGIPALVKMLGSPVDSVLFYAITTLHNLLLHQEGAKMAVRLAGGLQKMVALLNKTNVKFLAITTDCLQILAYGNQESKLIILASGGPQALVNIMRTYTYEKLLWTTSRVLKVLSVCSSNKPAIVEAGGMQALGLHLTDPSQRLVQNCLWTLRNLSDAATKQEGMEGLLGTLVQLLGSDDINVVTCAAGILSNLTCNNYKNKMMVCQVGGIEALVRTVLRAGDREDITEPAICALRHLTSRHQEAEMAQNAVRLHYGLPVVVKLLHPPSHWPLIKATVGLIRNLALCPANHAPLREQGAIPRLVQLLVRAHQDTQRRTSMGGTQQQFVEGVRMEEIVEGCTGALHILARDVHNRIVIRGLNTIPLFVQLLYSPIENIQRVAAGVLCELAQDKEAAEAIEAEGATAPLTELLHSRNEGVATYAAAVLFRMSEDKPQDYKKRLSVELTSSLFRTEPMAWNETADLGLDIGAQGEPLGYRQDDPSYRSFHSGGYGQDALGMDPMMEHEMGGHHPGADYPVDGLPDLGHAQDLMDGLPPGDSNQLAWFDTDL

[1] = target: T2, B-cat-Halo (beta-catenin HaloTag NanoBRET construct expressed in HEK293 cells) (UniProt P35222 1-781); experiment: cell-based or functional assay
T2 sequence (looked up): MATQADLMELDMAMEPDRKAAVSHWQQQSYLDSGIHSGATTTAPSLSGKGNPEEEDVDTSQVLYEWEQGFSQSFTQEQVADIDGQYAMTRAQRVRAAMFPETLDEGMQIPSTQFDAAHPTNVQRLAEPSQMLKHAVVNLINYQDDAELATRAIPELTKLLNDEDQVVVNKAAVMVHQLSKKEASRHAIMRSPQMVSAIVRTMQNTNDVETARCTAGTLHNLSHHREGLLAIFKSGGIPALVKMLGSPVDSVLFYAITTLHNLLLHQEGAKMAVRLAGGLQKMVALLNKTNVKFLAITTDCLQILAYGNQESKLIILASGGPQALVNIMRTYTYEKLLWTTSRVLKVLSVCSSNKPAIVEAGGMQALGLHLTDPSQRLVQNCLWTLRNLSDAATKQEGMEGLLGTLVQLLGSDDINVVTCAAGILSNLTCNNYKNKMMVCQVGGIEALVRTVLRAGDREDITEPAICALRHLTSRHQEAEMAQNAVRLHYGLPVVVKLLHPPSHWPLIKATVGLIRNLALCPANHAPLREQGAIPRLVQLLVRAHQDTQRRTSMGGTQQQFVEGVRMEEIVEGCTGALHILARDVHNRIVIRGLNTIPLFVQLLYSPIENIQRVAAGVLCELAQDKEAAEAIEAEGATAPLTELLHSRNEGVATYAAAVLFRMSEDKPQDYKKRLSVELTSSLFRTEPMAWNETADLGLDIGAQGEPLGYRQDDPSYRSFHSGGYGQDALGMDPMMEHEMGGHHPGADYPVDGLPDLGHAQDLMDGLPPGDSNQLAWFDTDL

[2] = target: T3, full-length beta-Catenin (Uniprot ID P35222) (Homo sapiens (Human), UniProt P35222 2-781); experiment: fluorescence polarization competition; displaces 5FAM-TCF4(10-53) from full-length beta-catenin
T3 construct: full-length; also called bCat; B-Catenin
T3 sequence: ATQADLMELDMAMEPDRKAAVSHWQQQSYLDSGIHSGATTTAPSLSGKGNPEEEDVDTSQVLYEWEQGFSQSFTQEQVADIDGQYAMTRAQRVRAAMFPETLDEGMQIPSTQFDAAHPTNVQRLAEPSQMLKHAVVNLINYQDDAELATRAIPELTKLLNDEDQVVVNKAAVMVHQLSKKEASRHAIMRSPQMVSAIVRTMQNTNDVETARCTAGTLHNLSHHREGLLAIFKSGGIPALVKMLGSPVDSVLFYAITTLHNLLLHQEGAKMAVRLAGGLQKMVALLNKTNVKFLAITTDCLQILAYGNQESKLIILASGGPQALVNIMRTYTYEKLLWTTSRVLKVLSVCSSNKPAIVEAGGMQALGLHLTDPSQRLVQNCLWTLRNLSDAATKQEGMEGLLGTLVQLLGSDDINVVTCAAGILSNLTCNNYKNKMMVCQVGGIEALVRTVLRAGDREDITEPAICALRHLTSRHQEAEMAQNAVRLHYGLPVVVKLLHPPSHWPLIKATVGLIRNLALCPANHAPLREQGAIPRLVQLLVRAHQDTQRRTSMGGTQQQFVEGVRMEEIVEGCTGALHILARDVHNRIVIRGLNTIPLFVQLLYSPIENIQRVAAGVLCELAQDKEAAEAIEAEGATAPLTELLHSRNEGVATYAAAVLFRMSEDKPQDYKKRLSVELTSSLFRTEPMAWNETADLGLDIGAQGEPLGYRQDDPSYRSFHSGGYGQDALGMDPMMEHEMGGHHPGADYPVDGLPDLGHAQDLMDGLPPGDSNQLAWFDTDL
Procedure: The plate was incubated protected from light for 60 minutes at 20° C. prior to read. Reads were performed on a CLARIOstar plate reader (BMG Labtech) in duplicate, and data were fitted to a 1:1 binding model with hill slope using an in-house script. All provided concentrations are final concentrations.

Binder	NanoBRET Abs IC50 (B-cat-Halo) [µM]	NanoBRET Abs IC50 [1] [µM]	IC50 [2] [µM]
Ac-[αAllylPro]D[tBuAla][B5(3)]D[Phe(3-COOH)]AAFS[PyrS2″][3Thi][Bta]N-NH2 (staple 1-4, 4-11) [I-2045]	13.5		
Ac-[αAllylPro]D[tBuAla][B5(3)]D[Phe(3-COOH)]AAFN[PyrS2″][Phe(2-Cl)][Bta]F-NH2 (staple 1-4, 4-11) [I-2033]	9.5		
Ac-[αAllylPro]D[tBuAla][B5(3)]D[Phe(3-COOH)]NAFL[PyrS2″][3Thi][Bta]A-NH2 (staple 1-4, 4-11) [I-2049]	4.5		
Ac-[αAllylPro]D[tBuAla][B5(3)]D[Phe(3-COOH)]AAFA[PyrS2″][Phe(2-Cl)][Bta]N-NH2 (staple 1-4, 4-11; also: staple isomer, earlier eluting HPLC peak) [I-2035]	14.5		
Ac-[αAllylPro]D[tBuAla][B5(3)]D[Phe(3-COOH)]AAFA[PyrS2″][3Thi][Bta]N-NH2 (staple 1-4, 4-11) [I-2042]	10		
Ac-[αAllylPro]D[tBuAla][B5(3)]D[Phe(3-COOH)]AAFL[PyrS2″][3Thi][Bta]NAAA-NH2 (staple 1-4, 4-11) [I-2046]	2.9		
Ac-[αAllylPro]D[tBuAla][B5(3)]D[Phe(3-COOH)]AAFF[PyrS2″][Phe(2-Cl)][Bta]N-NH2 (staple 1-4, 4-11) [I-2037]	5		
XDNXDEAAFQXFXQ (not fully specified; N-terminal Ac; PL3 at 1, B5 at 4, S8 at 11 (staples PL3-B5 and B5-S8 by olefin metathesis); BztA at 13; C-terminal NH2, Stapled peptide composition; Same description as I-1531; separate, later eluting HPLC peak (staple isomer); also called Ac-PL3-Asp-Asn-B5-Asp-Glu-Ala-Ala-Phe-Gln-S8-Phe-BztA-Gln-NH2) [I-1532]		> 20	0.049
XDSXDEAAFQXFXQ (not fully specified; N-terminal Ac; PL3 at 1, B5 at 4, S8 at 11 (staples PL3-B5 and B5-S8 by olefin metathesis); Hse at 3; BztA at 13; C-terminal NH2, Stapled peptide composition; later eluting HPLC peak (staple isomer); also called Ac-PL3-Asp-Hse-B5-Asp-Glu-Ala-Ala-Phe-Gln-S8-Phe-BztA-Gln-NH2) [I-1545]		> 20	0.026
Ac-[αAllylPro]DF[B5(23)]DEAAF[hSer][S8]F[Bta]Q-NH2 (staple 1-4, 4-11, Stapled peptide composition; also called Ac-PL3-Asp-Phe-B5-Asp-Glu-Ala-Ala-Phe-Hse-S8-Phe-BztA-Gln-NH2) [I-1551]		19.8	0.016
XDQXDEAAFQXFXQ (not fully specified; N-terminal Ac; PL3 at 1, B5 at 4, S8 at 11 (staples PL3-B5 and B5-S8 by olefin metathesis); BztA at 13; C-terminal NH2, Stapled peptide composition; Same description as I-1539; later eluting HPLC peak (staple isomer); also called Ac-PL3-Asp-Gln-B5-Asp-Glu-Ala-Ala-Phe-Gln-S8-Phe-BztA-Gln-NH2) [I-1540]		42.4	0.017
Ac-[αAllylPro]DN[B5(15)]DEAAF[hSer][S8]F[Bta]Q-NH2 (staple 1-4, 4-11; not fully specified; printed as Ac-PL3-Asp-Asn-B5-Asp-Glu-Ala-Ala-Phe-Hse-S8-Phe-BztA-Gln-NH2, Stapled peptide composition; Same description as I-1535; earlier eluting HPLC peak (staple isomer); also called Ac-PL3-Asp-Asn-B5-Asp-Glu-Ala-Ala-Phe-Hse-S8-Phe-BztA-Gln-NH2) [I-1534]		> 20	0.181
Ac-[αAllylPro]DK[B5(23)]DEAAFQ[S8]F[Bta]Q-NH2 (staple 1-4, 4-11, Stapled peptide composition; also called Ac-PL3-Asp-Lys-B5-Asp-Glu-Ala-Ala-Phe-Gln-S8-Phe-BztA-Gln-NH2) [I-1552]		> 20	0.056
XDSXDEAAFQXFXQ (not fully specified; N-terminal Ac; PL3 at 1, B5 at 4, S8 at 11 (staples PL3-B5 and B5-S8 by olefin metathesis); Hse at 3; BztA at 13; C-terminal NH2, Stapled peptide composition; earlier eluting HPLC peak (staple isomer); also called Ac-PL3-Asp-Hse-B5-Asp-Glu-Ala-Ala-Phe-Gln-S8-Phe-BztA-Gln-NH2) [I-1544]		> 20	0.061

Source: patent US20240116985A1 (published 2024)
